The source of these data is publication PMC8748511 (2022).

The test has as its target SARS-CoV-2 spike receptor binding domain (RBD) (SARS-CoV-2, UniProt P0DTC2). The experiment in a line: SPR.

B1: Fu2 (VHH)
VHH: QVQLVESGGGLVQPGGSLRLSCAASGFTLDDYAIGWFRQAPGKEREGVSFITSSDGSTYYVDSVKGRFTISRDNAKNTVYLQMNSLTPEDTAIYYCAVGPSFSYTGSTYYRSELPWDYDYWGQGTQVTVSS
A word on the Kd: it is the free concentration of one partner at which half of the binding sites on the other are occupied at equilibrium, for simple one-to-one binding. Low values mean a tighter complex, high ones a looser complex. The molecule B1 gave a Kd of 0.118 nM.
